Assay results: patent publication US20230331820A1 (GlaxoSmithKline, published 2023)

B1: mAb clone 17 (antibody, V domains shown)
VH: QVQLKESGPGLVAPSQSLSITCTVSGFSLTSYGVHWVRQPPGKGLEWLGVIWAGGSSNYNSALMSRLSISKDNSKSQVFLKMNSLQTDDTAMYYCARDGYGYVYYAMDYWGQGTSVTVSS
VL: DIVMTQAAPSVPVTPGESVSISCRSSKSLLHSNGNTYLYWFLQRPGQSPQLLIYRMSNLASGVPDRFSGSGSGTAFTLRISRVEAEDVGVYYCMQHLEYPFTFGAGTKLELK
B2: mAb clone 9 (antibody, V domains shown)
VH: EVQLQQSGPELEKPGASVKISCKASGYSFTGYNMNWVKQSNGKSLEWIGNIDPYYGGTSYNQKFKGKATLTLDKSSSTAYMQLKSLTSEDSAVYYCARSRFITTVVATDYYAMDYWGQGTSVTVSS
VL: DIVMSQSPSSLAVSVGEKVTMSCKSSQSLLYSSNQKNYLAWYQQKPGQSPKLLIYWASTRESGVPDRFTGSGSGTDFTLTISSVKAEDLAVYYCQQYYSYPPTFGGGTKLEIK
B3: mAb clone 24 (antibody, V domains shown)
VH: EVQLQQSGPELVKPGASVKMSCKASGYTFTDYYMKWVKQSHGKSLEWIGDINPNNGDTFYNQKFKGKATLTVDKSSSTAYMQLNSLTSEDSAVYYCARRGFYYYGSRGGIMDYWGQGTSVTVSS
VL: NIMMTQSPSSLAVSAGEKVTMSCKSSQSVLYSSNQKNYLAWYQQKPGQSPKLLIYWASTRESGVPDRFTGSGSGTDFTLTISSVQAEDLAVYYCHQYLSSYTFGGGTKLEIK
B4: mAb clone 15 (antibody, V domains shown)
VH: QVQLKESGPGLVAPSQSLSITCTVSGFSLTSYGVSWVRQPPGKGLEWLGVIWGDGSTNYHSALISRLSISKDNSKSQVFLKLNSLQTDDTATYYCAKPDLYYDSPYAMDYWGQGTSVTVSS
VL: DIQMTQSPASLSASVGETVTITCRASGNIHNYLAWYQQKQGKSPQLLVYNAKTLADGVPSRFSGSGSGTQYSLKINSLQPEDFGSYYCQHFWSTPWTFGGGTKLEIK
B5: mAb clone 20 (antibody, V domains shown)
VH: QVQLQQSGAELVRPGTSVKVSCKASGYAFTNYLIEWVKQRPGQGLEWIGVINPGSGGTNYNEKFKGKATLTADKSSSTAYMQLSSLTSDDSAVYFCARSHYGNYYAMDYWGQGTSVTVSS
VL: NIVLTQSPASLAVSLGQRATISCRASESVDSYGNSFMHWYQQKPGQPPKLLIYLASNLESGVPARFSGSGSRTDFTLTIDPVEADDAATYYCQQNNEDPWTFGGGTKLEIK
B6: mAb clone 10 (antibody, V domains shown)
VH: EVKLVESGGGLVQPGGSLRLSCATSGFTFSDFYMEWVRQPPGKRLEWIAASRNKANDYTTEYSASVKGRFIVSRDTSQSILYLQMNALRAEDTAIYYCARENYGNPAMDYWGQGTSVTVSS
VL: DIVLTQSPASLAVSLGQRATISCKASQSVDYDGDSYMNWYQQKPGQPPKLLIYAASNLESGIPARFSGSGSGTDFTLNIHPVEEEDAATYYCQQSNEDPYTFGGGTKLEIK
B7: mAb clone 2 (antibody, V domains shown)
VH: QVQLQQSGAELVRPGTSVKVSCKASGYAFTNYLIEWVKQRPGQGLEWIGVINPGSGGTNYNEKFKGKATLTADKSSSTAYMQLSSLTSDDSAVYFCARSRGYPYAMDYWGQGTSVTVSS
VL: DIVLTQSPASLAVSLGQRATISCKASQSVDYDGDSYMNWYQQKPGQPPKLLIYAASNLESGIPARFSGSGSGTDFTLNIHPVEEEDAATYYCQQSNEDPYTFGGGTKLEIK
B8: mAb clone 18 (antibody, V domains shown)
VH: QVQLQQSGAELVRPGTSVKMSCKAAGYTFTNYWIGWVKQRPGHGLEWIGDIYPGGGYTKYNEKFKGKATLTADTSSSTAYMQLSSLTSEDSAIYYCARDGYSPYWGQGTSLTVSS
VL: TIVMTQTPKFLLVSAGDRVTITCKASQSVSNAVAWYQQKPGQSPKLLIYSASNRYTGVPDRFTGSGYGTDFTFTISSVQAEDLAVYFCQQDYTSPFTFGSGTKLEIK
notes: also called mAb 18; mAb18
B9: mAb clone 3, 21 (antibody, V domains shown)
VH: EVQLQQSGPELVKPGASVKISCKTSGYTFTEYTMHWVKQSHGKSLEWIGGINPNNGGTSYNQKFKGKATLTVDKSSSTAYMELRSLTSEDSAVYYCARSLVEGDFAYWGQGTLVTVSA
VL: DIVLTQSPASLAVSLGQRATISCRASQSVSTSSYSYMHWYQQKPGQPPKLLIKYASNLESGVPARFSGSGSGTDFTLNIHPVEEEDTATYYCQHSWEIPYTFGGGTKLEIK
B10: mAb clone 5 (antibody, V domains shown)
VH: EVKLVESGGGLVQPGGSLRLSCATSGFTFSDFYMEWVRQPPGKRLEWIAASRNKANDYTTEYSASVKGRFIVSRDTSQSILYLQMNALRAEDTAIYYCARDFLPYYGSPWFAYWGQGTLVTVSA
VL: DIVMTQSPATLSVTPGDRVSLSCRASQSISDYLHWYQQKSHESPRLLIKYASQSISGIPSRFSGSGSGSDFTLSINSVEPEDVGVYYCQNGHSFPYTFGGGTKLEIK
notes: also called mAb 5; GEGI/5IIa

The binders below were run against T1, gEgI WT: HSV2 gEgI heterodimer comprising gE and gI wildtype ectodomains (HSV2, UniProt P89475 21-416; P06764 21-256) (assay: SPR binning; gEgI captured by mAb 39).
B1 was tested, and the RU was 0.5 RU.
B2 gave an RU of 9 RU.
Binder B3 has an RU of 30.5 RU.
B4 gave an RU of 11.7 RU.
Binder B5 has an RU of 23.8 RU.
With B6 the RU was 10.3 RU.

Each binder was assayed against T1, gEgI WT: HSV2 gEgI heterodimer … (assay: SPR binning; gEgI captured by mAb 34).
For B1, the RU was -9.4 RU.
B2 showed an RU of 0.9 RU.
B3 gave an RU of 20.7 RU.
In the case of B4, the RU is reported as 5.9 RU.
For B5, the RU was 13.4 RU.
For B6, the RU was 2 RU.

Each binder was assayed against T2, gI WT: HSV2 gI wildtype ectodomain (HSV2, UniProt P06764 21-256) (assay: ELISA, supernatant).
B7: binds.
B8: no binding.

What follows are binders tested against T1, gEgI WT: HSV2 gEgI heterodimer … (assay: SPR binning; gEgI captured by mAb 40).
In the case of B1, the RU is reported as -2.4 RU.
With B2 the RU was 6 RU.
In the case of B3, the RU is reported as 28.3 RU.
Binder B4 has an RU of 6.9 RU.
For B5, the RU was 21.3 RU.
B6 was tested, and the RU was 8.3 RU.

Target: T2, gI WT: HSV2 gI wildtype ectodomain
Experiment: ELISA, supernatant
Remark: another data set of the same source
B1: no binding.
B2: no binding.
B3: no binding.
B9: no binding.
B10: no binding.
B4: no binding.
B5: no binding.
B6: no binding.

What follows are binders tested against gEgI mutant (338): HSV2 gEgI mutant heterodimer comprising gE and gI ectodomains with insertion of a (HSV2, UniProt P89475 21-416; P06764 21-256) (assay: ELISA, supernatant).
B7: binds.
B1: binds.
B2: binds.
B3: binds.
B9: binds.
B4: binds.
B5: binds.
B6: binds.

These binders were tested against gE WT: HSV2 gE wildtype ectodomain (HSV2, UniProt P89475 21-416) (assay: ELISA, supernatant).
B7: no binding.
B1: no binding.
B2: no binding.
B3: no binding.
B9: binds.
B4: no binding.
B5: no binding.
B6: no binding.

The binders below were run against T1, gEgI WT: HSV2 gEgI heterodimer … (assay: SPR binning; gEgI captured by mAb 20).
For B1, the RU was 2.2 RU.
Binder B2 has an RU of 4.8 RU.
B3 was tested, and the RU was 17.7 RU.
With B4 the RU was 13 RU.
Work on B5 yielded an RU of 9.7 RU.
With B6 the RU was 10.8 RU.

What follows are binders tested against T1, gEgI WT: HSV2 gEgI heterodimer … (assay: SPR binning; gEgI captured by mAb 10).
Binder B1 has an RU of 4.6 RU.
B2 showed an RU of 11 RU.
B3 gave an RU of 39.1 RU.
In the case of B4, the RU is reported as 13.4 RU.
B5 was tested, and the RU was 32.8 RU.
B6 gave an RU of 4 RU.

The binders below were run against T1, gEgI WT: HSV2 gEgI heterodimer … (assay: SPR binning; gEgI captured by mAb 9).
For B1, the RU was -0.5 RU.
Work on B2 yielded an RU of -0.4 RU.
Work on B3 yielded an RU of 17 RU.
In the case of B4, the RU is reported as 12.7 RU.
For B5, the RU was 13 RU.
B6 gave an RU of 8.3 RU.

These binders were tested against T1, gEgI WT: HSV2 gEgI heterodimer … (assay: SPR binning; gEgI captured by mAb 24).
With B1 the RU was -2 RU.
In the case of B2, the RU is reported as -0.1 RU.
B3 showed an RU of 6.4 RU.
B4 was tested, and the RU was 9.9 RU.
Work on B5 yielded an RU of 7.3 RU.
For B6, the RU was 8.2 RU.

The binders below were run against T1, gEgI WT: HSV2 gEgI heterodimer … (assay: SPR binning; gEgI captured by mAb 45).
B1 gave an RU of -2.6 RU.
With B2 the RU was 1.8 RU.
In the case of B3, the RU is reported as 26.8 RU.
Binder B4 has an RU of 8.7 RU.
Binder B5 has an RU of 16.4 RU.
For B6, the RU was -2 RU.

Each binder was assayed against T1, gEgI WT: HSV2 gEgI heterodimer … (assay: SPR binning; gEgI captured by mAb 17).
Work on B1 yielded an RU of -8.7 RU.
For B2, the RU was 7.8 RU.
Work on B3 yielded an RU of 32.1 RU.
B4 gave an RU of 3.4 RU.
Work on B5 yielded an RU of 24 RU.
B6 showed an RU of 8.2 RU.

These binders were tested against T1, gEgI WT: HSV2 gEgI heterodimer … (assay: SPR binning; gEgI captured by mAb 5).
Binder B1 has an RU of 0.5 RU.
Work on B2 yielded an RU of 9.4 RU.
Work on B3 yielded an RU of 34.4 RU.
B4 was tested, and the RU was 13.5 RU.
B5 gave an RU of 25.3 RU.
In the case of B6, the RU is reported as 10.6 RU.

Each binder was assayed against T1, gEgI WT: HSV2 gEgI heterodimer … (assay: Biacore SPR, gEgI HEK BMP1063 at 10 µg/ml for 180 s over the mAb).
In the case of B7, the “RU Ag/250 RU mAbs” value is reported as 1.24 RU Ag/250 RU mAbs.
For B9, the “RU Ag/250 RU mAbs” value was 5.89 RU Ag/250 RU mAbs.
B4 was tested, and the “RU Ag/250 RU mAbs” value was 31.5 RU Ag/250 RU mAbs.

The binders below were run against T1, gEgI WT: HSV2 gEgI heterodimer … (assay: SPR binning; gEgI captured by mAb 19).
In the case of B1, the RU is reported as -6.3 RU.
B2 gave an RU of -5.1 RU.
With B3 the RU was 13.3 RU.
B4 gave an RU of 7.6 RU.
Binder B5 has an RU of 6.5 RU.
B6 was tested, and the RU was 2.3 RU.

Each binder was assayed against T1, gEgI WT: HSV2 gEgI heterodimer … (assay: Biacore SPR, gEgI CHO BMP1181 at 10 µg/ml for 180 s over the mAb).
With B7 the “RU Ag/250 RU mAbs” value was -1.26 RU Ag/250 RU mAbs.
In the case of B9, the “RU Ag/250 RU mAbs” value is reported as 3.41 RU Ag/250 RU mAbs.
With B4 the “RU Ag/250 RU mAbs” value was 30.4 RU Ag/250 RU mAbs.

The binders below were run against T1, gEgI WT: HSV2 gEgI heterodimer … (assay: SPR binning; gEgI captured by mAb 42).
B1 was tested, and the RU was -0.8 RU.
With B2 the RU was 7 RU.
In the case of B3, the RU is reported as 30.7 RU.
For B4, the RU was 9.8 RU.
B5 gave an RU of 24.5 RU.
With B6 the RU was 9.4 RU.

What follows are binders tested against T1, gEgI WT: HSV2 gEgI heterodimer … (assay: SPR binning; gEgI captured by mAb 15).
In the case of B1, the RU is reported as -6.7 RU.
B2 showed an RU of 5.5 RU.
Binder B3 has an RU of 42.6 RU.
B4 showed an RU of -4.9 RU.
For B5, the RU was 18.5 RU.
B6 gave an RU of 3.3 RU.
